Assay results: patent US20250115663A1 (CELLDEX THERAPEUTICS, published 2025)
Numbering of substitutions follows the chain as printed. Values belong to the binder of their own block, whether it stands above or below them.

Tests used:
[1] = biological target: T1, soluble human CD40-MsIgG2a (human, UniProt P25942); experiment: BLI (Octet QKe), antibody captured on anti-human Fc (AHC) biosensors, analyte soluble human CD40-MsIgG2a 3.13 to 0.098 nM, 25 C, 1:1 fit
T1 construct: soluble, fused to mouse IgG2a; also called recombinant human CD40-msG2a chimeric protein; CD40-MsIgG2a (Celldex, 60 kD by SDS-PAGE)
Experimental: Purified antibodies from Example 1 were captured on Anti-Human Fc Capture (AHC) biosensors (Fortebio Product No. 18-5060). Each antibody was prepared in dilution buffer (10mMPO4+150 mM NaCl+1 mg/mL BSA+0.5% Tween 20, pH 7.2) to 0.5 μg/mL and loaded on freshly hydrated AHC biosensors for 35-50 sec at 25° C. and 1000 rpm plate shake speed to achieve a target response of 0.2 nm. Low levels of ligand were captured to limit any effects of mass transport of analyte on kinetic parameters. For one assay, eight biosensors were loaded with the same antibody.
Binding was determined by exposing six of the antibody loaded biosensors to analyte: soluble human CD40-MsIgG2a (Celldex, 60 kD by SDS-PAGE). Affinity measurements were determined using 2-fold serial dilutions of analyte ranging from 3.13 to 0.098 nM in dilution buffer at 25° C. and 1000 rpm plate shake speed. Association of the antibody loaded biosensors in analyte wells was carried out for 1200 seconds, the biosensors were then moved to dilution buffer wells for 2.5 hrs (9000 sec) for dissociation measurements.
Fortebio's Data Analysis Software version 8.2.0.7 (Pall ForteBio, Menlo Park, CA) was used in each case to derive kinetic parameters from the concentration series of analyte in dilution buffer binding to captured antibody. The association and dissociation curves were fitted to a 1:1 binding model using the data analysis software according to the manufacturer's guidelines.

[2] = biological target: T2, kappa-sCD40(1-94)-Flag point mutant E1G (human, UniProt P25942 22-114); experiment: ELISA, mutated kappa-sCD40(1-94)-Flag captured on anti-Flag antibody, detection anti-human IgG Fc-HRP; the concentration axis is taken as that of 3C3
T2 construct: not shown: N-terminal human kappa light chain; C-terminal Flag tag
Experimental: (§1) 1 μg/ml of purified kappa-sCD40-Flag fusion proteins or CHO cell supernatants containing the sCD40 fusion proteins were captured to microtiter plates that were pre-coated with 5 μg/ml mouse anti-Flag antibody (Sigma) in PBS and blocked with 5% bovine serum albumin in PBS. Following incubation with the CD40 antibody, the microplates were washed with PBS/Tween, and incubated with a goat anti-human IgG Fc polyclonal reagent conjugated to horseradish peroxidase. After washing, the plates were developed with HRP substrate, and analyzed at OD 450-650 using a microtiter plate reader. An ELISA with a goat anti-human IgG Fab2-HRP to measure kappa chain binding was carried out in parallel to validate the sCD40 fusion protein expression from different transfections.

[3] = biological target: T3, kappa-sCD40(1-94)-Flag point mutant P2Q (human, UniProt P25942 21-114); experiment: as above
T3 construct: not shown: N-terminal human kappa light chain; C-terminal Flag tag
T3 chain: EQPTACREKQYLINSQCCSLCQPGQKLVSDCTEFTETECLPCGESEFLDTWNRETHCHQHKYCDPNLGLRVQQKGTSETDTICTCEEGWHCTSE
Experimental: as §1

[4] = biological target: T4, kappa-sCD40(1-94)-Flag point mutant P3S (human, UniProt P25942 21-114); experiment: as above
T4 construct: not shown: N-terminal human kappa light chain; C-terminal Flag tag
T4 chain: T3 chain with Q2P, P3S
Experimental: as §1

[5] = biological target: T5, kappa-sCD40(1-94)-Flag point mutant T4V (human, UniProt P25942 21-114); experiment: as above
T5 construct: not shown: N-terminal human kappa light chain; C-terminal Flag tag
T5 chain: T3 chain with Q2P, T4V
Experimental: as §1

[6] = biological target: T6, kappa-sCD40(1-94)-Flag point mutant E33A (human, UniProt P25942 21-114); experiment: as above
T6 construct: not shown: N-terminal human kappa light chain; C-terminal Flag tag
T6 chain: T3 chain with Q2P, E33A
Experimental: as §1

[7] = biological target: T7, kappa-sCD40(1-94)-Flag point mutant T35E (human, UniProt P25942 21-114); experiment: as above
T7 construct: not shown: N-terminal human kappa light chain; C-terminal Flag tag
T7 chain: T3 chain with Q2P, T35E
Experimental: as §1

[8] = biological target: T8, kappa-sCD40(1-94)-Flag point mutant E36K (human, UniProt P25942 21-114); experiment: as above
T8 construct: not shown: N-terminal human kappa light chain; C-terminal Flag tag
T8 chain: T3 chain with Q2P, E36K
Experimental: as §1

[9] = biological target: T9, kappa-sCD40-Flag fusion protein, fragment amino acids 1-94 (human, UniProt P25942 21-114); experiment: ELISA, kappa-sCD40(1-94)-Flag captured on anti-Flag antibody, detection anti-human IgG Fc-HRP; the concentration axis is taken as that of 3C3 (not said on the sheet)
T9 construct: also called sCD40aa 1-94; not shown: N-terminal human kappa light chain; C-terminal Flag tag
Experimental: as §1

Kd [1]: 10.7 pM
kon [1]: 813000 M⁻¹ s⁻¹
EC50 (read off the curve) [2]: ~0.04 µg/mL
EC50 (read off the curve) [3]: ~0.02 µg/mL
EC50 (read off the curve) [4]: ~0.03 µg/mL
EC50 (read off the curve) [5]: ~0.02 µg/mL
EC50 (read off the curve) [6]: ~0.2 µg/mL
EC50 (read off the curve) [7]: ~0.02 µg/mL
EC50 (read off the curve) [8]: ~0.09 µg/mL
EC50 (read off the curve) [9]: ~0.02 µg/mL
B1: anti-CD40 human monoclonal antibody 3C3 (antibody, human IgG2, kappa, V domains shown)
VH: QVQLVESGGGVVQPGRSLRLSCAGSGFIFSRYGMYWVRQAPGKGLEWVAVIWYDGSYKYYADSVKGRFTISRDNSKNTLYLQMNSLRAEDTAVYYCARESPWYYFDYWGQGTLVTVSS
VL: DIQMTQSPSSLSASVGDRVTITCRASQGISNYLAWYQQKPGKVPKLLIYAASTLQSGVPSRFSGSGSGTDFTLTISSLQPEDVATYYCQKYKSAPFTFGPGTKVDIKR
notes: Human IgG2, C-terminal lysine removed; also called anti-CD40 mAb 3C3; CD40 antibody 3C3

Kd [1]: 3.3 pM
B2: anti-CD40 human monoclonal antibody 3G5 (antibody, human IgG2, V domains shown)
VH: QVQLVESGGGVVQPGKSLRLSCAASGFTFSSNGIHWVRQAPGKGLEWVAVIWSDGSNKFYADSVKGRFTISRDNSKNTLYLQMNSLRAEDTAVYYCARASGSGSYYNFFDYWGQGTLVTVSS
VL: EIVMTQSPATLSVSPGERATLSCRASQSVRSNLAWYQQKPGQAPRLLIYGASTRATGIPARFSGSGSGTEFTLTINSLQSEDFAVYYCQQHNKWITFGQGTRLEIK
notes: Human IgG2
